Assay results reported in US20130189255A1, “FUSIONS AND CONJUGATES OF INSULINOTROPIC AGENTS” (GLAXO GROUP LIMITED, priority 2008, published 2013).

Assay: Thermal denaturation by differential scanning calorimetry (DSC)
Format: physicochemical
Details: 1 mg/ml, 20 mM citrate pH6.2, 100 mM NaCl, 180° C./hour, non-2-state model
Experimental: Protein was dialysed overnight into 20 mM citrate pH6.2, 100 mM NaCl, filtered and then prepared at concentration of 1 mg/ml as determined by absorbance at 280 nm. Filtered dialysis buffer was used as a reference for all samples. DSC was performed at a heating rate of 180° C./hour. Before each sample a solution of 1% decon, and then buffer were injected to clean the cells and to provide instrumental baseline. Obtained traces were analysed using Origin 7 Microcal software. The DSC trace obtained from the reference buffer was subtracted from the sample trace. Precise molar concentration of the sample was used for calculations (performed automatically by Origin). Baseline setting for both upper and lower baselines linear regions before/after transition were selected and connected using cubic connect function. The resulting graph is fitted to non-2-state model, generating apparent Tm, and ΔH/ΔHv values.

lysozyme showed an appTm of 76.2 °C.
